Drawing on patent US6703362 (CYTOGEN, dated 2004), this text covers hSI/BSA and OD for nine molecules.

Test [1] concerns the target T1, hSI receptor domain (human sucrase-isomaltase complex, amino acid residues 272-667), His-tag fusion protein (human, UniProt P14410 272-667).
T1 construct: also called hS1; recombinant hSI; not shown: poly-histidine tag (pET vector) at the NH2-terminal end
The test can be described thus: phage ELISA, OD on hSI over OD on BSA. The method, then: (§1) 6.6. Receptor ELISA Procedure 96 well plates were coated overnight with GIT receptor, BSA and, optionally, IDE (insulin degrading enzyme, an irrelevant His-fusion protein)or hTF. The plates were blocked for one hour with 0.5% BSA-PBS. After clarification, the amplified phage were diluted 1:100 in […] plus 0.05% Tween 20 in PBS and added to the plates. Following incubation of the plates on a rotator for 1 to 2 hours, the plates were washed 5 times with 1% BSA plus 0.05% Tween 20 in PBS. […] After the plates were washed 5 times, as described above, TMB substrate was added to the wells. The plates were read at 650 nm absorbance.

In test [2] the target is T1, hSI receptor domain (human …). The test can be described thus: phage ELISA, plate coated with hSI domain. The method, then: as §1
(ELISA stands for enzyme-linked immunosorbent assay.)

Test [3] deals with T2, D2H receptor domain (human D2H transporter, amino acid residues 387-685), His-tag fusion protein (human, UniProt Q07837 387-685).
T2 construct: purified under denaturing conditions; also called recombinant D2H; not shown: poly-histidine tag (pET vector) at the NH2-terminal end
T2 sequence: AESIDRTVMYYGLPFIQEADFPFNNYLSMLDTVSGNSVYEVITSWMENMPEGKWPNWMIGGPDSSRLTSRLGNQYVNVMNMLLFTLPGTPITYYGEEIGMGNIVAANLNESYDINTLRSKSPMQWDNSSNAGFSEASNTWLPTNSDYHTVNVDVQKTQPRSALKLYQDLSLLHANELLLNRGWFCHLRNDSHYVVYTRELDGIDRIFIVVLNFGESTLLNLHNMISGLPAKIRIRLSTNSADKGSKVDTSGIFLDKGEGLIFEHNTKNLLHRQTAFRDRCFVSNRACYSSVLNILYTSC
The test can be described thus: phage ELISA, plate coated with D2H domain. The procedure: as §1
Binding to fixed Caco-2 cells, D2H and BSA was examined.

T1 sequence (P14410 272-667, one chain of several): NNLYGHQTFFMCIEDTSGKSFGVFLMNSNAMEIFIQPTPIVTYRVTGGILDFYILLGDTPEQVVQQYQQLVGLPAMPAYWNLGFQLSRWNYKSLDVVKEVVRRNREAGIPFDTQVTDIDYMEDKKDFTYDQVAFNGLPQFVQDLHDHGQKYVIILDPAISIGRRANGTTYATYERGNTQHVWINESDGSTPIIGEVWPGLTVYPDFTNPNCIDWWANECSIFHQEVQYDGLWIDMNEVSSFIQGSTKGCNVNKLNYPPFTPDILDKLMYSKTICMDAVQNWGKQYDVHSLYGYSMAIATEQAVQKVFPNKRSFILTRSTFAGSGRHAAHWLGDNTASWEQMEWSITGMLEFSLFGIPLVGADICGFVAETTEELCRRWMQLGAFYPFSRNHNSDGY

B1: SNiAX2 (peptide)
peptide: SDSDGDHYGLRGGVRCSLRDRGCGLALSTVHAGPPSFYPKLSSPAETVESCLAKPHTENSFTNVWKDDKTLDRYANYEGCLWNATGVVVCTGDETQCYGTWVPIGLAIPENEGGGSEGGGSEGGGSEGGGTKPPEYGDTPIPGYTYINPLDGTYPPGTEQNPANPNPSLEESQPLNTFMFQNNRFRNRQGALTVYTGTVTQGTDPVKTYYQYTPVSSKAMYDAYWNGKFRDCAFHSGFNEDPFVCEYQGQSSDLPQPPVNAGGGSGGGSGGGSEGGGSEGGGSEGGGSEGGGSGGGSGSGDFDYEKMANANKGAMTENADENALQSDAKGKLDSVATDYGAAIDGFIGDVSGLANGNGATGDFAGSNSQMAQVGDGDNSPLMNNFRQYLPSLPQSVECRPFVFSAGKPYEFSIDCDKINLFRGVFAFLLYVATFMYVFSTFANILRNKES
notes: Assayed as M13 phage clone displaying the insert
In the case of B1, in test [1], the hSI/BSA stood at 6 ratio. For the same molecule, the OD in test [2] turned out to be 0.383 OD.

B2: SNi38 (peptide)
peptide: RGAADQRRGWSENLGLPRVGWDAIAHNSYTFTSRRPRPPAETVESCLAKPHTENSFTNVWKDDKTLDRYANYEGCLWNATGVVVCTGDETQCYGTWVPIGLAIPENEGGGSEGGGSEGGGSEGGGTKPPEYGDTPIPGYTYINPLDGTYPPGTEQNPANPNPSLEESQPLNTFMFQNNRFRNRQGALTVYTGTVTQGTDPVKTYYQYTPVSSKAMYDAYWNGKFRDCAFHSGFNEDPFVCEYQGQSSDLPQPPVNAGGGSGGGSGGGSEGGGSEGGGSEGGGSEGGGSGGGSGSGDFDYEKMANANKGAMTENADENALQSDAKGKLDSVATDYGAAIDGFIGDVSGLANGNGATGDFAGSNSQMAQVGDGDNSPLMNNFRQYLPSLPQSVECRPFVFSAGKPYEFSIDCDKINLFRGVFAFLLYVATFMYVFSTFANILRNKES
notes: as for B1
With B2, the hSI/BSA in test [1] is 6 ratio. Besides, the OD in test [2] was 0.466 OD.

B3: DCX36 (peptide)
peptide: SWSSWNWSSKTTRLGDRATREGCGPSQSDGCPYNGRLTTVKPRTAETVESCLAKPHTENSFTNVWKDDKTLDRYANYEGCLWNATGVVVCTGDETQCYGTWVPIGLAIPENEGGGSEGGGSEGGGSEGGGTKPPEYGDTPIPGYTYINPLDGTYPPGTEQNPANPNPSLEESQPLNTFMFQNNRFRNRQGALTVYTGTVTQGTDPVKTYYQYTPVSSKAMYDAYWNGKFRDCAFHSGFNEDPFVCEYQGQSSDLPQPPVNAGGGSGGGSGGGSEGGGSEGGGSEGGGSEGGGSGGGSGSGDFDYEKMANANKGAMTENADENALQSDAKGKLDSVATDYGAAIDGFIGDVSGLANGNGATGDFAGSNSQMAQVGDGDNSPLMNNFRQYLPSLPQSVECRPFVFSAGKPYEFSIDCDKINLFRGVFAFLLYVATFMYVFSTFANILRNKES
notes: as for B1
B3 gave an OD in test [3] of 0.293 OD.

B4: SNiAX8 (peptide)
peptide: SPKLSSVGVMTKVTELPTEGPNAISIPISATLGPRNPLRAETVESCLAKPHTENSFTNVWKDDKTLDRYANYEGCLWNATGVVVCTGDETQCYGTWVPIGLAIPENEGGGSEGGGSEGGGSEGGGTKPPEYGDTPIPGYTYINPLDGTYPPGTEQNPANPNPSLEESQPLNTFMFQNNRFRNRQGALTVYTGTVTQGTDPVKTYYQYTPVSSKAMYDAYWNGKFRDCAFHSGFNEDPFVCEYQGQSSDLPQPPVNAGGGSGGGSGGGSEGGGSEGGGSEGGGSEGGGSGGGSGSGDFDYEKMANANKGAMTENADENALQSDAKGKLDSVATDYGAAIDGFIGDVSGLANGNGATGDFAGSNSQMAQVGDGDNSPLMNNFRQYLPSLPQSVECRPFVFSAGKPYEFSIDCDKINLFRGVFAFLLYVATFMYVFSTFANILRNKES
notes: as for B1
In test [1], B4 returned a hSI/BSA of 5 ratio. In test [2], this molecule gave an OD of 0.342 OD.

B5: SNi45 (peptide)
peptide: SGGEVSSWGRVNDLCARVSWTGCGTARSARTDNKGFLPKHSSLRAETVESCLAKPHTENSFTNVWKDDKTLDRYANYEGCLWNATGVVVCTGDETQCYGTWVPIGLAIPENEGGGSEGGGSEGGGSEGGGTKPPEYGDTPIPGYTYINPLDGTYPPGTEQNPANPNPSLEESQPLNTFMFQNNRFRNRQGALTVYTGTVTQGTDPVKTYYQYTPVSSKAMYDAYWNGKFRDCAFHSGFNEDPFVCEYQGQSSDLPQPPVNAGGGSGGGSGGGSEGGGSEGGGSEGGGSEGGGSGGGSGSGDFDYEKMANANKGAMTENADENALQSDAKGKLDSVATDYGAAIDGFIGDVSGLANGNGATGDFAGSNSQMAQVGDGDNSPLMNNFRQYLPSLPQSVECRPFVFSAGKPYEFSIDCDKINLFRGVFAFLLYVATFMYVFSTFANILRNKES
notes: as for B1
Regarding B5, the hSI/BSA in test [1] is 9 ratio. Further, in test [2], the OD worked out at 0.518 OD.

B6: SNi34 (peptide)
peptide: SPCGGSWGRFMQGGLFGGRTDGCGAHRNRTSASLEPPSSDYAETVESCLAKPHTENSFTNVWKDDKTLDRYANYEGCLWNATGVVVCTGDETQCYGTWVPIGLAIPENEGGGSEGGGSEGGGSEGGGTKPPEYGDTPIPGYTYINPLDGTYPPGTEQNPANPNPSLEESQPLNTFMFQNNRFRNRQGALTVYTGTVTQGTDPVKTYYQYTPVSSKAMYDAYWNGKFRDCAFHSGFNEDPFVCEYQGQSSDLPQPPVNAGGGSGGGSGGGSEGGGSEGGGSEGGGSEGGGSGGGSGSGDFDYEKMANANKGAMTENADENALQSDAKGKLDSVATDYGAAIDGFIGDVSGLANGNGATGDFAGSNSQMAQVGDGDNSPLMNNFRQYLPSLPQSVECRPFVFSAGKPYEFSIDCDKINLFRGVFAFLLYVATFMYVFSTFANILRNKES
notes: as for B1
With B6, in test [1], the hSI/BSA came to 7 ratio. Besides, the OD in test [2] was determined as 0.761 OD.

B7: SNiAX6 (peptide)
peptide: RTTTAKGCLLGSFGVLSGCSFTPTSPPPHLGYPPHSVNAETVESCLAKPHTENSFTNVWKDDKTLDRYANYEGCLWNATGVVVCTGDETQCYGTWVPIGLAIPENEGGGSEGGGSEGGGSEGGGTKPPEYGDTPIPGYTYINPLDGTYPPGTEQNPANPNPSLEESQPLNTFMFQNNRFRNRQGALTVYTGTVTQGTDPVKTYYQYTPVSSKAMYDAYWNGKFRDCAFHSGFNEDPFVCEYQGQSSDLPQPPVNAGGGSGGGSGGGSEGGGSEGGGSEGGGSEGGGSGGGSGSGDFDYEKMANANKGAMTENADENALQSDAKGKLDSVATDYGAAIDGFIGDVSGLANGNGATGDFAGSNSQMAQVGDGDNSPLMNNFRQYLPSLPQSVECRPFVFSAGKPYEFSIDCDKINLFRGVFAFLLYVATFMYVFSTFANILRNKES
notes: as for B1
Turning to B7, the hSI/BSA in test [1] amounted to 7 ratio. This molecule had an OD in test [2] of 0.369 OD.

B8: DCX33 (peptide)
peptide: RWNWTVLPATGGHYWTRSTDYHAINNHRPSIPHQHPTPIAETVESCLAKPHTENSFTNVWKDDKTLDRYANYEGCLWNATGVVVCTGDETQCYGTWVPIGLAIPENEGGGSEGGGSEGGGSEGGGTKPPEYGDTPIPGYTYINPLDGTYPPGTEQNPANPNPSLEESQPLNTFMFQNNRFRNRQGALTVYTGTVTQGTDPVKTYYQYTPVSSKAMYDAYWNGKFRDCAFHSGFNEDPFVCEYQGQSSDLPQPPVNAGGGSGGGSGGGSEGGGSEGGGSEGGGSEGGGSGGGSGSGDFDYEKMANANKGAMTENADENALQSDAKGKLDSVATDYGAAIDGFIGDVSGLANGNGATGDFAGSNSQMAQVGDGDNSPLMNNFRQYLPSLPQSVECRPFVFSAGKPYEFSIDCDKINLFRGVFAFLLYVATFMYVFSTFANILRNKES
notes: as for B1
On to B8, for which the OD in test [3] stood at 0.616 OD.

B9: DCX26 (peptide)
peptide: SGRTTSEISGLWGWGDDRSGYGWGNTLRPNYIPYRQATNRHRYTAETVESCLAKPHTENSFTNVWKDDKTLDRYANYEGCLWNATGVVVCTGDETQCYGTWVPIGLAIPENEGGGSEGGGSEGGGSEGGGTKPPEYGDTPIPGYTYINPLDGTYPPGTEQNPANPNPSLEESQPLNTFMFQNNRFRNRQGALTVYTGTVTQGTDPVKTYYQYTPVSSKAMYDAYWNGKFRDCAFHSGFNEDPFVCEYQGQSSDLPQPPVNAGGGSGGGSGGGSEGGGSEGGGSEGGGSEGGGSGGGSGSGDFDYEKMANANKGAMTENADENALQSDAKGKLDSVATDYGAAIDGFIGDVSGLANGNGATGDFAGSNSQMAQVGDGDNSPLMNNFRQYLPSLPQSVECRPFVFSAGKPYEFSIDCDKINLFRGVFAFLLYVATFMYVFSTFANILRNKES
notes: as for B1
B9 had an OD in test [3] of 0.956 OD.
